The record followed here is paper PMC13324855.

pKd: −log10 of the molar value. “And” between values parts separate entries of the source, which are not always exact repeats. Equal values may be shown once.

In test [1] the target is SARS-CoV-1 receptor-binding domain (RBD), wild type (SARS-CoV-1). The experiment in a line: flow cytometry on cells. (Flow cytometry measures light scatter and fluorescence of single cells or particles in a stream.)
Test [2] deals with SARS-CoV-2 spike receptor-binding domain, Wuhan-Hu-1 (WT RBD) (SARS-CoV-2) (UniProt P0DTC2). As to the kind of experiment: flow cytometry on cells.

In general, pKd refers to the negative decadic logarithm of the Kd, by convention in mol/L. One may read the EC25 as the concentration at which the effect reaches the 25% level. A low value points to an effect from little substance. For the substance “angiotensin converting enzyme 2 (ACE2) peptidase domain, ACE2D (domain or fragment)”, the negative-log Kd (pKd) in test [1] is 8.82 and 8.76 and 8.72. Besides, in test [2], the EC25 turned out to be 2 nM.
